Where “and” joins values, the source holds several entries; their conditions need not be identical. Equal entries are not always repeated.

Assay [1] deals with Bfl-1 (UniProt Q16548). The experiment in a line: peptide SPOT array, c-Myc-tagged receptor at 1 uM or 100 nM, anti-c-Myc-Cy3.
Target sequence in this assay (Q16548 1-151): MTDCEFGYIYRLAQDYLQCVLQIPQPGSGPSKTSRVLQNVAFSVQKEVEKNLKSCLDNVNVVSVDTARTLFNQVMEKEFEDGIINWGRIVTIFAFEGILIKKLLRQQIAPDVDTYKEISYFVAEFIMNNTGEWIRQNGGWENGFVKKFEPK
Assay [2] deals with Bcl-w (UniProt Q92843). Described as above.
Assay [3] has as its target Bcl-2 (UniProt P10415). Described as above.
Target sequence in this assay (P10415 1-217): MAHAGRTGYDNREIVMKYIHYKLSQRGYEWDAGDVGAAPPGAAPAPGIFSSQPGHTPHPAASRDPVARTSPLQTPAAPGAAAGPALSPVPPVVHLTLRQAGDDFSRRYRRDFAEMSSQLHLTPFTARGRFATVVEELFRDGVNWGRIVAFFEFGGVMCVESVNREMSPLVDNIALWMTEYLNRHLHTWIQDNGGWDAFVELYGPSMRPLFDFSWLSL
Assay [4] addresses Bcl-xL (UniProt Q07817). Described as above.
The target of assay [5] is Mcl-1 (UniProt Q07820). Described as above.
Target sequence in this assay (Q07820 172-327): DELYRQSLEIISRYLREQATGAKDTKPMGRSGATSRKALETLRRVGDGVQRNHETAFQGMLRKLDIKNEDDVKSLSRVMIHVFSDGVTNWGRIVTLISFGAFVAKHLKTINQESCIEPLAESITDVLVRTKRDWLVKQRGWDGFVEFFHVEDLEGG
Assay [6] has as its target peptide based on the putative BH3 motif in Aven (human). Put plainly: peptide or protein array; peptide SPOT arrays on nitrocellulose membranes; 1 µM or 100 nM c-Myc-tagged receptor in TBS (50 mM Tris, pH 8.1, 100 mM NaCl, 0.01% Triton X-100), 1 h, room temperature; detected with anti-c-myc-Cy3; signal given as percent of the Bim BH3 signal.
In assay [7] the target is PXT1 BH3-like peptide (human). The experiment in a line: fluorescence polarisation; direct binding: 10 nM FAM-labeled peptide, receptor serially diluted; 25°C; 20 mM NaPO4, 50 mM NaCl, 1 mM EDTA, 0.001% Triton X, pH 7.8; single-site binding model.
Assay [8] concerns the target Bcl-2 (UniProt P10415). The experiment in a line: fluorescence polarisation; binding assay in solution; direct or competition not told for this peptide (MRPL41 was unlabeled in Figure S2).
Target sequence in this assay (P10415 whole entry): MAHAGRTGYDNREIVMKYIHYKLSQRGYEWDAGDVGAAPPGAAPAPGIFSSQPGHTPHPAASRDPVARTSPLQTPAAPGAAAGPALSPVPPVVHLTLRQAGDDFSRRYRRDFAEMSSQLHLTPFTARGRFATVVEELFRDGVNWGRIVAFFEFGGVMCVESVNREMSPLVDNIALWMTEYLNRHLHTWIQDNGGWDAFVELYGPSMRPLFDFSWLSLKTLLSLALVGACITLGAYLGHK
Assay [9] has as its target Mcl-1 (UniProt Q07820). The note with it: cited from earlier work.
Target sequence in this assay (Q07820 whole entry): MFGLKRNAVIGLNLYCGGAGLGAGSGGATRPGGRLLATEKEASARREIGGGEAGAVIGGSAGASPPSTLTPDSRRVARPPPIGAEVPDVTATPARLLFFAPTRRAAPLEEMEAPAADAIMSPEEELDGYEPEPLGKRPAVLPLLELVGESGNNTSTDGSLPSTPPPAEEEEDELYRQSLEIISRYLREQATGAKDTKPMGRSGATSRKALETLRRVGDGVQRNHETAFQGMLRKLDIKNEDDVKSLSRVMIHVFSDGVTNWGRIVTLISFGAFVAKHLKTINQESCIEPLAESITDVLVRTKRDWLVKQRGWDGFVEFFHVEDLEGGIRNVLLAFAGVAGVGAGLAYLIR
For assay [10], the target named is Bfl-1 (UniProt Q16548). The note with it: cited from earlier work.
Target sequence in this assay (Q16548 whole entry): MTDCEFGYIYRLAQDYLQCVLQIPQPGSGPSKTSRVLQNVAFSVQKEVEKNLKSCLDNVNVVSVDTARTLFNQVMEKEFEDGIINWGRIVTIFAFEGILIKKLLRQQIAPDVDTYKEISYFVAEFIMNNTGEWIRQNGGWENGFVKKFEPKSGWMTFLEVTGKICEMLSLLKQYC

Chain of BCL2L15 (chain, as listed by the source): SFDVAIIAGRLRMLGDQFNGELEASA
Chain of Bcl-xL (UniProt Q07817) (Q07817 1-209): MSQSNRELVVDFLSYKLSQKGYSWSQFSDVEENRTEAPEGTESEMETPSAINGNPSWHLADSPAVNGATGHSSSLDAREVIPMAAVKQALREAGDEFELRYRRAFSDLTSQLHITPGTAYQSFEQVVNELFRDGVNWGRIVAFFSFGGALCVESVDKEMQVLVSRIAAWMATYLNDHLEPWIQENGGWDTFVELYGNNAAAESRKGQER
Chain of TSC2 (chain, as listed by the source): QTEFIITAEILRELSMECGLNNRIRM
Chain of ATP2B1 (chain, as listed by the source): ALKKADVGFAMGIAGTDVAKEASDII
Chain of Bcl-xL (from UniProt Q07817-1 1-233) (natural protein) (Q07817 whole entry): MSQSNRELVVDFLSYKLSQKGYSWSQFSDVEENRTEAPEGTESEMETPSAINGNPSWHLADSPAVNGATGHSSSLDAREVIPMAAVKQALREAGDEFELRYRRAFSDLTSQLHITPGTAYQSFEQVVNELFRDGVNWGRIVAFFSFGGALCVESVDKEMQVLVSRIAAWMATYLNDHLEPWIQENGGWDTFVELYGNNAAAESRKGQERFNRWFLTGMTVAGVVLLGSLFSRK
Chain of PSMB1 (chain, as listed by the source): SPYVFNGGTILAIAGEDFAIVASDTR
Chain of Bad BH3 peptide BH3 (Q92934 103-127): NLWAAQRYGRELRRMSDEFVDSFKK
Chain of Bcl-w (Q92843 1-164 Q133R): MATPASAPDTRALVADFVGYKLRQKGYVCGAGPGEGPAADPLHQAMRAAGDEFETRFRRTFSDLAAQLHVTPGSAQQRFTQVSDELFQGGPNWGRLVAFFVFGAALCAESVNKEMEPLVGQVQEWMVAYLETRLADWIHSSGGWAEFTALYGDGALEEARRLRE
Chain of ARPC5L (chain, as listed by the source): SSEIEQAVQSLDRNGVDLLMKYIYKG
Chain of PACSIN2 (chain, as listed by the source): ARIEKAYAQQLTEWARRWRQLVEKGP
Chain of GRIN3A (chain, as listed by the source): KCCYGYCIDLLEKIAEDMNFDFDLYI
Chain of Bcl-2 (from UniProt P10415 1-239) (natural protein) (P10415 whole entry): as the sequence (P10415 whole entry) above
Chain of MYO3A (chain, as listed by the source): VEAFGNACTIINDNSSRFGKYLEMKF
Chain of GRIN2D (chain, as listed by the source): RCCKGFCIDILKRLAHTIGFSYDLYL
Chain of Mcl-1 (from UniProt Q07820 1-350) (natural protein) (Q07820 whole entry): as the sequence (Q07820 whole entry) above
Chain of EHMT1 (chain, as listed by the source): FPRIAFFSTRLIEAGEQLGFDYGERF
Chain of EIF2C3 (chain, as listed by the source): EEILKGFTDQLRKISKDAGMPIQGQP
Chain of EIF2C1 (chain, as listed by the source): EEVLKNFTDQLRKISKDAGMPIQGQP
Chain of C7orf16 (chain, as listed by the source): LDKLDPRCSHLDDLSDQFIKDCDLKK

Consider BCL2L15, for which the figures for the SPOT signal as a fraction of Bim BH3's signal on the same receptor and array in [1], in assay [2] and in [3] were 0.52, 0.58 and 0.75, respectively. On to SYN1, for which the SPOT signal as a fraction of Bim BH3's signal on the same receptor and array in [1] is 0.04; in assay [4], 0.1; in [5], 0.03 and 0.04. For the substance CYP2A13, the SPOT signal as a fraction of Bim BH3's signal on the same receptor and array was 0.04 in [1]; 0.06 and 0.07 in assay [4]; 0.04 and 0.05 in assay [5]. For the substance PACSIN2, the SPOT signal as a fraction of Bim BH3's signal on the same receptor and array in [4] came to 0.24. As to “Bcl-xL (from UniProt Q07817-1 1-233) (natural protein)”, the percent of the Bim BH3 SPOT signal in [6] is 11%. The substance further came in with a Kd in [7] of under 30 nM.

As for MYO3A, the SPOT signal as a fraction of Bim BH3's signal on the same receptor and array in assay [5] is 0.13. As for PSMB1, the SPOT signal as a fraction of Bim BH3's signal on the same receptor and array in assay [4] and in [5] was 0.02 in each case. As to VPS29, the SPOT signal as a fraction of Bim BH3's signal on the same receptor and array in assay [4] is 0.02 and 0.01; in assay [5], 0.02. In [4], C7orf16 had an SPOT signal as a fraction of Bim BH3's signal on the same receptor and array of 0.02. HRK: the SPOT signal as a fraction of Bim BH3's signal on the same receptor and array is 0.23 and 0.32 in assay [1]; 0.56 and 0.38 in [4]. In assay [4], EHMT1 showed an SPOT signal as a fraction of Bim BH3's signal on the same receptor and array of 0.04.

TAF6 came in with an SPOT signal as a fraction of Bim BH3's signal on the same receptor and array in [5] of 0.03. In the case of ATP2B1, the SPOT signal as a fraction of Bim BH3's signal on the same receptor and array in [4] turned out to be 0.02; in assay [5] it was 0.01. In the case of GRIN3A, the SPOT signal as a fraction of Bim BH3's signal on the same receptor and array in [5] is 0.03. Turning to ARPC5, the SPOT signal as a fraction of Bim BH3's signal on the same receptor and array in assay [4] was determined as 0.03. The same measure, in the same setting: next, ARPC5L: 0.03. Consider CHAF1B, for which the SPOT signal as a fraction of Bim BH3's signal on the same receptor and array in assay [4] and in [5] was 0.02 in each case.

In [5], C9orf84 returned an SPOT signal as a fraction of Bim BH3's signal on the same receptor and array of 0.02.

“Bcl-2 (from UniProt P10415 1-239) (natural protein)” had a Kd in assay [7] of under 30 nM. Substance EIF2C1 registered an SPOT signal as a fraction of Bim BH3's signal on the same receptor and array in [4] of 0.02. MRPL41 BH3-like peptide had a Kd in assay [8] of 190 nM. “Bad BH3 peptide BH3 (from UniProt Q92934)”: the equilibrium dissociation constant (Kd) in assay [9] and in [10] was over 2500 nM each time.

For the substance “Mcl-1 (from UniProt Q07820 1-350) (natural protein)”, in assay [7], the equilibrium dissociation constant (Kd) was under 30 nM.

In turn, EIF2C3 gave an SPOT signal as a fraction of Bim BH3's signal on the same receptor and array in assay [4] of 0.03. The same measure, in the same setting: next, RPL29: 0.72 and 0.7.

For TRIO, the SPOT signal as a fraction of Bim BH3's signal on the same receptor and array is 0.04 and 0.05 in assay [1]; 0.06 in assay [4]; 0.04 in assay [5]. With KIF5C, the SPOT signal as a fraction of Bim BH3's signal on the same receptor and array in assay [5] is 0.07 and 0.16. Same read-out and setting: next, GRIN2D: 0.06.

Take TSC2: the SPOT signal as a fraction of Bim BH3's signal on the same receptor and array was found to be 0.03 in assay [1]; 0.03 in assay [2]; 0.15 in assay [4]; 0.01 in assay [3]; 0.06 in [5].
